Data from US20240124607A1 (Merck Sharp & Dohme, published 2024).

T1: CEACAM5 N-A1-B1-His (human, UniProt P06731 35-322, limits assumed)
T1 sequence: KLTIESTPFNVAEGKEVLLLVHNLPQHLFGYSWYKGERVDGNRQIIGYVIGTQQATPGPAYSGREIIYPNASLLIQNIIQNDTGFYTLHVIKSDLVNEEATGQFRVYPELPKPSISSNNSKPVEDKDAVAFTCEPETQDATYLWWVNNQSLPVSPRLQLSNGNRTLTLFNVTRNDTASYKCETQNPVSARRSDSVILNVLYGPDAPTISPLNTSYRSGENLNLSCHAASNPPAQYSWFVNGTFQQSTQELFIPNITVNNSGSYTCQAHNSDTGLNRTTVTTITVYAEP

T2: human CEACAM5 on cells (human, UniProt P06731 35-685)
T2 sequence: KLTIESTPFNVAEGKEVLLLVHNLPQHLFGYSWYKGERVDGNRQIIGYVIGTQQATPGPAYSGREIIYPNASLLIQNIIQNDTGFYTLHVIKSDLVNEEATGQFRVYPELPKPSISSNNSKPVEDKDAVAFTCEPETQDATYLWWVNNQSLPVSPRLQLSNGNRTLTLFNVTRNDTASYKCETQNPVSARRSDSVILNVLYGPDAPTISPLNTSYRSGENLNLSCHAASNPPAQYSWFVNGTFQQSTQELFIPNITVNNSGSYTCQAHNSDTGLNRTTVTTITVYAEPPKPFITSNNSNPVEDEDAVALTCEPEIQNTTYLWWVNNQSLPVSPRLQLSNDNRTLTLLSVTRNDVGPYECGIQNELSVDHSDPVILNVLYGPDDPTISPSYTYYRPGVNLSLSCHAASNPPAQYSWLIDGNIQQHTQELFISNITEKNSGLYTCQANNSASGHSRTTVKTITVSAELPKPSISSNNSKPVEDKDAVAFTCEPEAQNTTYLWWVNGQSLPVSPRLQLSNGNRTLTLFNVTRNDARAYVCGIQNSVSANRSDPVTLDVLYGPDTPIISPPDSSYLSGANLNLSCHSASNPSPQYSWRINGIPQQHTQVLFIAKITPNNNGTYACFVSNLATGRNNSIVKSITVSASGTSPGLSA

T3: soluble mouse Fc-human NKG2D dimer (human, UniProt P26718 78-216, limits assumed)
T3 construct: also called NKG2D-mFc; human NKG2D fused to a mouse Fc
T3 sequence (looked up): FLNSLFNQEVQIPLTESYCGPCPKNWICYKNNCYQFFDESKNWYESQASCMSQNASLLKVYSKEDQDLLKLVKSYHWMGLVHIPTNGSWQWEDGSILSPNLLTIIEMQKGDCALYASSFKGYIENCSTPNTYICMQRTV

T4: Cyno NKG2D-mFc (cynomolgus monkey, UniProt P61252 78-216, limits assumed)
T4 construct: also called cynomolgus NKG2D fused to a mouse Fc
T4 sequence (looked up): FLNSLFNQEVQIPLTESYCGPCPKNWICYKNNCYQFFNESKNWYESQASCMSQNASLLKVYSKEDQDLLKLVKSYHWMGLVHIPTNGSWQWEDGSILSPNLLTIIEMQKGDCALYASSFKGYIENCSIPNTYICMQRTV

T5: human CEACAM8 on Ba/F3 cells (human, UniProt P31997 35-320)
T5 construct: whole, on cells
T5 sequence (looked up): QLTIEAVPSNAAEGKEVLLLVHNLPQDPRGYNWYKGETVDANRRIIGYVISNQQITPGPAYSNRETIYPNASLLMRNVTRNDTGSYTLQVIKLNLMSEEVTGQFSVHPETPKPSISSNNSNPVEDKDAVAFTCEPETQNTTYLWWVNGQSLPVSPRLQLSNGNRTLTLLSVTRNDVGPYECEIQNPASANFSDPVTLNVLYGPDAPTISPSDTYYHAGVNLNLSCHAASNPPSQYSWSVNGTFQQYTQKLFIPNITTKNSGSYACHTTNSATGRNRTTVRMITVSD


Key:
CEACAM5 N-A1-B1-His = target: T1, CEACAM5 N-A1-B1-His; assay: SPR, Fab capt, 25C
Protocol: If the protein domain was an Fc fusion, AB0411, AB0466, AB0264, or AB0621 were captured using an anti-human Fab antibody (Cytiva, #28958325) immobilized onto a CM5 chip. The various hCEACAM5 protein domains (N-term, A1-B1, A2, B2, A3, or B3) were titrated over the captured TriNKETs at 50 μL/min for 180 sec of association and 300 sec of dissociation. The assay was run at 25° C. in HBS-EP+ running buffer, pH 7.4. The surface of the CM5 chip was regenerated using […] glycine pH 2.1.

human CEACAM5 on cells [1] = target: T2, human CEACAM5 on cells; assay: cell-based or functional assay
[2] = target: T3, soluble mouse Fc-human NKG2D dimer; assay: SPR, NKG2D-mFc captured, 37C, pH 7.4
Protocol: (§1) Binding to NKG2D was assessed by SPR using a mouse Fc capture kit (Cytiva, #BR100838) immobilized onto a CM5 chip. Human and cynomolgus NKG2D fused to a mouse Fc were captured and AB0411, AB0466, or AB0621 was titrated from 600 nM.

Cyno NKG2D-mFc = target: T4, Cyno NKG2D-mFc; assay: SPR, NKG2D-mFc captured, 37C, pH 7.4
Protocol: as §1

[3] = target: T5, human CEACAM8 on Ba/F3 cells; assay: flow cytometry on Ba/F3 cells expressing human CEACAM8, fold over background (FOB), 5-fold dilutions from 1600 nM
Protocol: To examine the binding specificity of the TriNKETs to CEACAM5 compared to other CEACAM family members, Ba/F3 cells were engineered to express one of human CEACAM1, CEACAM6, CEACAM8, or cynomolgus CEACAM5. CEACAM5 TriNKETs were evaluated by flow cytometry starting at 1600 nM followed by 7 5-fold dilutions.

human CEACAM5 on cells [4] = target: T2, human CEACAM5 on cells; assay: flow cytometry, LoVo cells

Kd (CEACAM5 N-A1-B1-His)	kon (CEACAM5 N-A1-B1-His)	EC50 (nM), NK lysis of HPAF-II (DELFIA) (human CEACAM5 on cells [1])	EC50 (nM), NK lysis of LS-174T (DELFIA) (human CEACAM5 on cells [1])	EC50 (nM), NK lysis of SK-CO-1 (DELFIA) (human CEACAM5 on cells [1])	EC50 (nM), NK lysis of ZR-75-30 (DELFIA) (human CEACAM5 on cells [1])	Kd [2]	koff [2]	kon [2]	Kd (Cyno NKG2D-mFc)	koff (Cyno NKG2D-mFc)	kon (Cyno NKG2D-mFc)	binding result [3]	EC50 (human CEACAM5 on cells [4])	Max FOB (human CEACAM5 on cells [4])	Binder	Max Killing (%), HPAF-II (human CEACAM5 on cells [1])	Max Killing (%), LS-174T (human CEACAM5 on cells [1])	Max Killing (%), SK-CO-1 (human CEACAM5 on cells [1])	Max Killing (%), ZR-75-30 (human CEACAM5 on cells [1])
2.1 nM	280000 M⁻¹ s⁻¹	0.23 nM	0.46 nM	9.07 nM	0.8 nM	680 nM	0.16 s⁻¹	240000 M⁻¹ s⁻¹	750 nM	0.18 s⁻¹	230000 M⁻¹ s⁻¹	no binding (tested: 1600 nM)			AB0466 F3' CEACAM5 TriNKET (bispecific antibody, human IgG1, kappa) not shown heavy: EVQLVESGGGLVKPGGSLRLSCAASGFTFSSYSMNWVRQAPGKGLEWVSSISSSSSYIYYADSVKGRFTISRDNAKNSLYLQMNSLRAEDTAVYYCARGAPIGAAAGWFDPWGQGTLVTVSSASTKGPSVFPLAPSSKSTSGGTAALGCLVKDYFPEPVTVSWNSGALTSGVHTFPAVLQSSGLYSLSSVVTVPSSSLGTQTYICNVNHKPSNTKVDKKVEPKSCDKTHTCPPCPAPELLGGPSVFLFPPKPKDTLMISRTPEVTCVVVDVSHEDPEVKFNWYVDGVEVHNAKTKPREEQYNSTYRVVSVLTVLHQDWLNGKEYKCKVSNKALPAPIEKTISKAKGQPREPQVCTLPPSRDELTENQVSLTCLVKGFYPSDIAVEWESNGQPENNYKTTPPVLDSDGSFFLYSWLTVDKSRWQQGNVFSCSVMHEALHNHYTQKSLSLSPG light: DIQMTQSPSSVSASVGDRVTITCRASQGISSWLAWYQQKPGKAPKLLIYAASSLQSGVPSRFSGSGSGTDFTLTISSLQPEDFATYYCQQGVSFPRTFGGGTKVEIKRTVAAPSVFIFPPSDEQLKSGTASVVCLLNNFYPREAKVQWKVDNALQSGNSQESVTEQDSKDSTYSLSSTLTLSKADYEKHKVYACEVTHQGLSSPVTKSFNRGEC	16.5%	20.5%	75.1%	21.4%
0.95 nM	300000 M⁻¹ s⁻¹		0.32 nM	4.55 nM	0.17 nM	490 nM	0.12 s⁻¹	250000 M⁻¹ s⁻¹	590 nM	0.15 s⁻¹	260000 M⁻¹ s⁻¹		3.25 nM	19 fold over background	AB0411 F3' CEACAM5 TriNKET (bispecific antibody, human IgG1, kappa) DIQLTQSPATLSVSPGERATLSCRASQSVSSSYLAWYQQKPGQAPRLLIYGASSRATGIPDRFSGSGSGTDFTLTISRLEPEDFAVYYCQQYNNWPLTFGCGTKVEIKGGGGSGGGGSGGGGSGGGGSQVQLVQSGGGLVQPGGSLRLSCAASGFTFTSYAMSWVRQAPGKCLEWVSAISGTGDSTFYADSVKGRFTFSRDNSKNTLYLQMNSLRAEDTAVYYCAKDLGWLQYGLFDYWGQGTLVTVSSGSDKTHTCPPCPAPELLGGPSVFLFPPKPKDTLMISRTPEVTCVVVDVSHEDPEVKFNWYVDGVEVHNAKTKPREEQYNSTYRVVSVLTVLHQDWLNGKEYKCKVSNKALPAPIEKTISKAKGQPREPRVYTLPPCRDELTKNQVSLTCLVKGFYPSDIAVEWESNGQPENNYKTTPPVLVSDGSFTLYSKLTVDKSRWQQGNVFSCSVMHEALHNHYTQKSLSLSPG heavy: EVQLVESGGGLVKPGGSLRLSCAASGFTFSSYSMNWVRQAPGKGLEWVSSISSSSSYIYYADSVKGRFTISRDNAKNSLYLQMNSLRAEDTAVYYCARGAPIGAAAGWFDPWGQGTLVTVSSASTKGPSVFPLAPSSKSTSGGTAALGCLVKDYFPEPVTVSWNSGALTSGVHTFPAVLQSSGLYSLSSVVTVPSSSLGTQTYICNVNHKPSNTKVDKKVEPKSCDKTHTCPPCPAPELLGGPSVFLFPPKPKDTLMISRTPEVTCVVVDVSHEDPEVKFNWYVDGVEVHNAKTKPREEQYNSTYRVVSVLTVLHQDWLNGKEYKCKVSNKALPAPIEKTISKAKGQPREPQVCTLPPSRDELTENQVSLTCLVKGFYPSDIAVEWESNGQPENNYKTTPPVLDSDGSFFLYSWLTVDKSRWQQGNVFSCSVMHEALHNHYTQKSLSLSPG light: DIQMTQSPSSVSASVGDRVTITCRASQGISSWLAWYQQKPGKAPKLLIYAASSLQSGVPSRFSGSGSGTDFTLTISSLQPEDFATYYCQQGVSFPRTFGGGTKVEIKRTVAAPSVFIFPPSDEQLKSGTASVVCLLNNFYPREAKVQWKVDNALQSGNSQESVTEQDSKDSTYSLSSTLTLSKADYEKHKVYACEVTHQGLSSPVTKSFNRGEC	28.3%	28.9%	84%	25.9%
